These results are taken from publication PMC11490872, “Drug-resistant menin variants retain high binding affinity and interactions with MLL1” (The Journal of Biological Chemistry, 2024).

Numbering of substitutions follows the chain as printed. Where two headings read alike, the source gives them in different places.

In one experiment the test system is menin T349M. More on the design: method as in PMID 36922589. As to conditions: versus wild-type menin; cited from earlier work.
For the next experiment, the target named is T1, menin^WT (Homo sapiens, UniProt O00255).
T1 construct: Full-length human menin was expressed in BL21(DE3) cells; thioredoxin-His6 (cleaved yes); made in house; host or cells: E. coli BL21(DE3)
T1 sequence (O00255 1-610): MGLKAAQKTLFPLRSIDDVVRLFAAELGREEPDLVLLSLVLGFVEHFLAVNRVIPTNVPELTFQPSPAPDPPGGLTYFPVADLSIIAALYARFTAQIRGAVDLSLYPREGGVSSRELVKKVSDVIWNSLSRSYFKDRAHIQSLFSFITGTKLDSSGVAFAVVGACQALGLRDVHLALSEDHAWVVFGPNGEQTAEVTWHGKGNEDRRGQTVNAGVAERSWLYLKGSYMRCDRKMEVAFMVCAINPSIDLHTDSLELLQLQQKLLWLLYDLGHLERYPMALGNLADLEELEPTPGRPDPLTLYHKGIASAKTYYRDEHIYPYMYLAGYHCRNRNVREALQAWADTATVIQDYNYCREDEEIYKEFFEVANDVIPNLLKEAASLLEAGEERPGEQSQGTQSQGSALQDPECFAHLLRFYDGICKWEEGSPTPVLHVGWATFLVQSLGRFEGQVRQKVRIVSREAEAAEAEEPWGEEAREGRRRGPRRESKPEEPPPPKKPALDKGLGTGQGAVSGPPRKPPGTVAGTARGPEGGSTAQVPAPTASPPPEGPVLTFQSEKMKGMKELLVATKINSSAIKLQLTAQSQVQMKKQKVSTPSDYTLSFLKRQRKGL
Description: ITC binding of MLL1 fragments to menin^WT. The method, then: (§1) Menin and MLL1 fragments were dialyzed at 4 °C against a 50 mM sodium phosphate pH 7.5, 50 mM NaCl, 1 mM TCEP buffer, and degassed prior to measurement. The titrations were performed using the VP-ITC system (MicroCal) at 25 °C. The calorimetric cell, which contained menin (concentrations in the 5–10 μM range), was titrated with the MLL1^160 and MLL1^4-15 derived peptides (concentration range 40–100 μM) injected in 10-μL aliquots. Data was analyzed using Origin 7.0 (OriginLab) to obtain Kd, stoichiometry, entropy, and enthalpy ([2]). Experiments with WT, M327I, T349M, and G331R menin and MLL1^160 or MLL1^4-15 were run in duplicate. Experiments with G331D menin and MLL1^160 were run in duplicate while experiments with G331D and MLL1^4-15 were run in quadruplicate.

The target in a further experiment is T2, menin^G331R (Homo sapiens, UniProt O00255, G326R).
T2 construct: The gene encoding full-length human menin was cloned into a pET32a expression vector; thioredoxin-His6 (cleaved yes); made in house; host or cells: E. coli BL21(DE3)
T2 sequence (O00255 1-610 G326R): T1 sequence (O00255 1-610) with G326R
Description: ITC binding of MLL1 fragments to menin^G331R. The method, then:
as §1

For the next experiment, the target named is T3, menin^G331D (Homo sapiens, UniProt O00255, G326D).
T3 construct: The gene encoding full-length human menin was cloned into a pET32a expression vector; thioredoxin-His6 (cleaved yes); made in house; host or cells: E. coli BL21(DE3)
T3 sequence (O00255 1-610 G326D): T1 sequence (O00255 1-610) with G326D
Description: ITC binding of MLL1 fragments to menin^G331D. As for the experimental part: as §1

Where [1] appears, read: ITC, representative binding isotherm Fig. 1A, 25 °C, read-out: Kd.

In the case of `CCN(C(=O)c1cc(F)ccc1Oc1cncnc1N1CC2(CCN(C[C@H]3CC[C@H](NS(=O)(=O)CC)CC3)CC2)C1)C(C)C` [Revumenib, reference compound], the “reduction of binding by T349M mutation” value in the experiment with menin T349M is reported as 111 fold.

B1: MLL1^160: N-terminal 160 amino acids of human MLL1, Cys2 mutated to alanine, recombinant (protein)
chain: MAHSARWRFPARPGTTGGGGGGGRRGLGGAPRQRVPALLLPPGPPVGGGGPGAPPSPPAVAAAAAAAGSSGAGVPGGAAAASAASSSSASSSSSSSSSASSGPALLRVGPGFDAALQVSAAIGTNLRRFRAVFGESGGGGGSGEDEQFLGFGSDEEVRVR
modifications: The printed 'Cys2' is the single N-terminal cysteine, Cys5 in the entry (peptide S4-A5-R6); Trx-His6 tag cleaved
A word on the Kd: it is the concentration at which binding is half-saturated. On to B1, for which the Kd with menin^WT (ITC summary Fig. 1B, values marked *, n = 2, read-out: WT Kd (nM), ITC) stood at 0.5 ± 0.3 nM; with menin^WT (setting [1]), 0.5 ± 0.2 nM; in the experiment with menin^G331R (ITC summary Fig. 1B, values marked *, n = 2, read-out: G331R Kd (nM), ITC), 1.3 ± 0.3 nM; with menin^G331R (setting [1]), 1.1 ± 0.3 nM; with menin^G331D (ITC summary Fig. 1B, * n = 2, ^ n = 4, read-out: G331D Kd (nM), ITC), 1.4 ± 0.7 nM; with menin^G331D (setting [1]) it was 1.4 ± 0.7 nM.
